Reference: patent US20170114140A1
Several values for one entry are separate records, joined by “and”; a condition that tells them apart may be missing. Identical values can stand only once. Values belong to the substance of their own block, whether it stands above or below them.

Tests used:
Assay in all cases: cell-based or functional assay
[1] = target: IL-25 (R&D Systems) used to restimulate human PBMC (UniProt Q9H293)
[2] = target: human IL-17RB on human PBMC (human) (UniProt Q9NRM6)
[3] = target: human IL-17RA on cells (human PBMC; human foreskin fibroblasts) (human) (UniProt Q96F46)

Chain of human IL-17RB on human PBMC (human) (Q9NRM6 18-502): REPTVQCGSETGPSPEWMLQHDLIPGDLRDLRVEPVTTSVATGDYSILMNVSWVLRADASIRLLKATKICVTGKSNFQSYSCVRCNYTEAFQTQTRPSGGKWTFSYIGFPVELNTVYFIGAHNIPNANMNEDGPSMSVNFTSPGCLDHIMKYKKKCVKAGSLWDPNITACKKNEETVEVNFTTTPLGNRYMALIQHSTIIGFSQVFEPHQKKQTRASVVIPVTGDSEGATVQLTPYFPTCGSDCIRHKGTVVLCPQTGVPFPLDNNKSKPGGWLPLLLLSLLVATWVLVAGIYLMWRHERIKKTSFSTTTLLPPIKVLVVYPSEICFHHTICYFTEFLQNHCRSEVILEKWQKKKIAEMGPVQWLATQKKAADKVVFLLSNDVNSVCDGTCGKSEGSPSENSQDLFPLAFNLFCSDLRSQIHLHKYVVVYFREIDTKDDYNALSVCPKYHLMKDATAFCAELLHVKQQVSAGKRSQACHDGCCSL
Chain of IL-25 (R&D Systems) used to restimulate human PBMC (Q9H293 33-177 limits assumed): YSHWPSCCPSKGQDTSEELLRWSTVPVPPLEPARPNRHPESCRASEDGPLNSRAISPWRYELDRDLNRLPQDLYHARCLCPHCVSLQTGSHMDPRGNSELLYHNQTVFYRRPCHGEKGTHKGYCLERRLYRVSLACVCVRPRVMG

% Inhibition of IL-5 production (TSLP treated human PBMC + IL-2 + IL-25), inhibitor 10 micrograms/mL [1]: 67%
Substance: HuIL-17RB: HIS (extracellular region of human IL-17RB fused to poly HIS) (from UniProt Q9NRM6 18-292) (receptor)

% Inhibition of IL-5 production (TSLP treated human PBMC + IL-2 + IL-25), inhibitor 10 micrograms/mL [2]: 13%
Substance: MAB1207: anti-HuIL-17RB MuIgG2b (R&D Systems) (antibody)

% Inhibition of IL-5 production (TSLP treated human PBMC + IL-2 + IL-25), inhibitor 10 micrograms/mL [3]: 24% and 33%
Substance: MAB1771: anti-HuIL-17RA MuIgG2b (R&D Systems) (antibody)
